The text below walks through data of patent US20200277373A1, “ANTI-TREM2 ANTIBODIES AND METHODS OF USE THEREOF” (Denali Therapeutics Inc., priority 2017, published 2020).

One experiment deals with human macrophages. As to the kind of experiment: Cell survival assay, human monocyte-derived macrophages, restricted or no M-CSF, CellTiter Glo. It counts as cell-based. Conditions: plate coated antibody, 5 ng/mL or no M-CSF, day 6. As to the method: TREM2 can support microglia energy homeostasis (Ulland et al., Cell, 2017, 170:649-663). […] To understand if enhancing TREM2 activity with TREM2 agonistic antibodies is sufficient for macrophage/microglia survival under limited M-CSF conditions, human macrophage differentiation and survival studies were performed using antibodies as described herein. Human monocytes isolated from peripheral blood were incubated with 5 ng/mL M-CSF in the presence of titrated concentrations of plate coated TREM2 antibodies or isotype controls. On day 6 cell viability was determined by CellTiter Glo viability assay.
In general terms: ATP-based viability assays read luminescence as a measure of living cells.

Experiment [1] has as its target T1, Human TREM2 expressing HEK cells (Homo sapiens, UniProt Q9NZC2).
T1 construct: expressed in transfected cells
The experiment in a line: FACS surface binding on HEK 293 overexpressing human TREM2 (H6). Conditions: FIG. 1A, mixed cell lines. As to the method: HEK 293 overexpressing human TREM2 (H6) and HEK 293 overexpressing GFP (B5) were harvested by 0.05% trypsin and incubated at 37° C. for 2 hours for surface TREM2 recovery. 293F overexpression mouse TREM2 were harvested and labelled with NucBlue live cell stain ReadyProbes reagent for 10 minutes (2 drops of reagent added per mL of media). After labeling, cells were washed twice with 1×PBS. NucBlue labeled 293F cells were mixed with H6 and B5 in FACS buffer (PBS-+-0.5% BSA) with human Trustain FcX solution (Biolegend, cat #422302) at a density of 10^6/mL per cell line. Mixed cell lines were seeded at 300,000 cells per well in a 96-well round-bottom and incubated 20 minutes at room temperature. After incubation, cells were centrifuged and test anti-TREM2 antibodies were added, then incubated for 45 minutes on ice. After incubation, cells were centrifuged and washed with FACS buffer three times. Cells were then incubated with secondary antibody (Alexa Fluor 647 AffiniPure F(ab′)2 fragment goat anti-mouse IgG, Fcγ fragment specific (1:200, Jackson ImmunoResearch, cat #115-606-071) for 30 minutes on ice. After incubation, cells were washed with FACS buffer three times and resuspended in 90 μL of FACS buffer, then analyzed by flow cytometry (BD FACSCanto II, San Jose, Calif.). 20,000 events were obtained for each sample.

Another experiment has as its target T2, TREM2 (Homo sapiens, UniProt Q9NZC2).
T2 construct: macrophage cells that endogenously express TREM2; endogenous in cells; host or cells: primary human monocyte-derived macrophages from donor blood
T2 sequence (Q9NZC2 19-230): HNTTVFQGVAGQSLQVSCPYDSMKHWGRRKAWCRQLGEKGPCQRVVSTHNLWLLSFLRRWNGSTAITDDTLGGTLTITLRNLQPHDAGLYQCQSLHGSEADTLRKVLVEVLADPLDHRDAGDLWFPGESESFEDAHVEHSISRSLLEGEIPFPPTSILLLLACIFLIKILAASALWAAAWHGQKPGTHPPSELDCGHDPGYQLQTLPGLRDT
As to the kind of experiment: TREM2 pSyk antagonist assay on human macrophages (antibody pre-incubation, then liposomes). The settings on record: FIGS. 9C-9D, 30 nM antibody. It counts as cell-based. How it is done:
Human macrophages were differentiated from donor blood using a human monocyte enrichment cocktail (Stem Cell Technologies) and culturing monocytes with human mCSF for five days in macrophage media (RPMI+10% Hyclone FBS+Glutamax+Pen/Strep+non-essential amino acids+sodium pyruvate). On the fifth day, the human macrophages were scraped from the flasks and were re-plated at 100,000 cells/well on a 96-well poly-D-lysine-coated plate in the macrophage media (without mCSF). The cells were incubated for 24 hours to adhere, then the media was removed.
Antibodies diluted in RPMI alone were immediately added to the cells, and allowed to incubate for 30 minutes at 37° C. The antibodies were then removed. Lipid vesicles comprised of 70% DOPC and 30% POPS (made according to the procedure for making vesicles described above) in HBSS were added to the cells and incubated […] at 37° C. The liposome/antibody solution was removed, and 35 μL lysis buffer (Cell Signaling Technologies, CST) was added using the liquid handler. The lysate was then incubated at 4° C. for 30 minutes, then either frozen at −80° C. or immediately carried forward to a pSyk AlphaLISA assay as described above.

T1 sequence (O43914 22-113 partner, one chain of several): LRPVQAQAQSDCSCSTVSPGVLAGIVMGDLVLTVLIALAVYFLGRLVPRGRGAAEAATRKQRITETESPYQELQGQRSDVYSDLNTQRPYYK

B1: RS9.F6: anti-TREM2 antibody clone; VH SEQ ID NO:24, VL SEQ ID NO:35 (antibody, V domains shown)
VH: QVQLQQPGAELVKPGASVKLSCKASGYTFTSYWMHWVKQSPGRGLEWIGRSDPTTGGTNYNEKFKTKATLTVDKPSSTAYMQLSSLTSDDSAVYYCVRTSGTGDYWGQGTSLTVSS
VL: DVVMTQTPLSLPVSLGDQASISCRSSQSLVHNNGNTFLHWYLQKPGQSPKLLIYKVSNRFSGVPDRFSGSGSGTDFTLKISRVEAEDLGVYFCSQTTHVPPTFGGGTKLEIK
Consider B1, for which the “survival of human macrophages” value in the experiment on human macrophages is listed as “increased the survival”. In experiment [1], the “binding to human and mouse TREM2 HEK cells (in words)” value is “binding to both mouse and human TREM2 cells”.

B2: 21D11: anti-TREM2 antibody clone; VH SEQ ID NO:14, VL SEQ ID NO:25 (antibody, V domains shown)
VH: QVQLQQSGAELARPGASVKLSCKASGYTFTSYWIQWVKQRPGQGLEWIGTIYPGDGDARYTQKFKGKATLTADKSSSTTYMQLNSLASEDSAVYYCARNGITTAGYYAMDYWGQGTSVTVSS
VL: DIQMTQSPASLSVSVGETVTITCRASENIYSNLAWYQQKQGRSPQLLVYAATNLADGVPSRFSGSGSGTQYSLKINSLQSEDFGYYYCQHFWGTPYTFGGGTKVEIK
With B2, the “liposome mediated pSyk signaling after antibody pre-incubation” value with TREM2 is given as “blocked”.
